# B1: BMP-4: BMP-4 (Catalog#314-BP-010, R&D Systems, MN) (protein, UniProt P12644 293-408, looked up)
# Bone morphogenetic protein 4: SPKHHSQRARKKNKNCRRHSLYVDFSDVGWNDWIVAPPGYQAFYCHGDCPFPLADHLNSTNHAIVQTLVNSVNSSIPKACCVPTELSAISMLYLDEYDKVVLKNYQEMVVEGCGCR
# B2: DKK1: Wnt Inhibitor DKK-1 (Dikkopf-1) (protein, UniProt O94907 32-266, looked up)
# Dickkopf-related protein 1: TLNSVLNSNAIKNLPPPLGGAAGHPGSAVSAAPGILYPGGNKYQTIDNYQPYPCAEDEECGTDEYCASPTRGGDAGVQICLACRKRRKRCMRHAMCCPGNYCKNGICVSSDQNHFRGEIEETITESFGNDHSTLDGYSRRTTLSSKMYHTKGQEGSVCLRSSDCASGLCCARHFWSKICKPVLKEGQVCTKHRRKGSHGLEIFQRCYCGEGLSCRIQKDHHQASNSSRLHTCQRH
# B3: Wnt1: WNT-1 (PeproTech, NJ, Catalogue#120-17) (protein, UniProt P04628 28-370, looked up)
# Proto-oncogene Wnt-1: ANSSGRWWGIVNVASSTNLLTDSKSLQLVLEPSLQLLSRKQRRLIRQNPGILHSVSGGLQSAVRECKWQFRNRRWNCPTAPGPHLFGKIVNRGCRETAFIFAITSAGVTHSVARSCSEGSIESCTCDYRRRGPGGPDWHWGGCSDNIDFGRLFGREFVDSGEKGRDLRFLMNLHNNEAGRTTVFSEMRQECKCHGMSGSCTVRTCWMRLPTLRAVGDVLRDRFDGASRVLYGNRGSNRASRAELLRLEPEDPAHKPPSPHDLVYFEKSPNFCTYSGRLGTAGTAGRACNSSSPALDGCELLCCGRGHRTRTQRVTERCNCTFHWCCHVSCRNCTHTRVLHECL
# How the values were obtained:
# H9P55 cells = assay: Definitive endoderm on human fibronectin or […] (FACS, real-time PCR); type: cell-based; details: fibronectin vs MATRIGEL coated plates
# Procedure: H9P55 cells were grown and differentiated on human fibronectin or regular growth factor […]™ (BD Biosciences). 1 ml of DMEM/F12 (Invitrogen/GIBCO) containing 1 ug/ml of human fibronectin (R&D systems, MN) was added to each well of 6 well tissue culture treated dish. Alternatively, regular growth factor […]™ was diluted 1:10 in DMEM/F12 and 1 ml of diluted […]™ was added to each well of 6 well tissue culture treated dish. Cells were passed with collagenase. […] Real-time PCR results (FIG. 39) confirm that formation of definitive endoderm was equivalent on fibronectin and […]™ coated plates.
# [1] = test system: H9P53 embryonic stem cells; assay: Definitive endoderm on […]: combination of Wnt-3a, GSK-3B inhibitor, BMP-4; type: cell-based, human; details: 25 ng/ml BMP-4 added to the DE protocol
# Source text: Results are expressed as fold increase over untreated cells. […] Results are expressed as fold increase over untreated cells.
# H9 cells = assay: Definitive endoderm after treatment with Wnt inhibitor DKK-1 (real-time PCR); type: cell-based, human; details: 100 ng/ml DKK1 with 20 ng/ml Wnt3a and 100 ng/ml activin A
# Procedure: To determine if the addition of Wnt-3a was causing the increase in differentiation, an inhibitor of Wnt-3 signaling was added to the cultures. […] H9 cells were cultured on plates coated with Growth Factor Reduced […] at a 1:30 dilution. The plates were coated with […] for 1 hr at room temperature.
# At day 5, the cultures were analyzed by real time PCR for SOX-17, SOX-7, Alpha-fetal protein (AFP), CXCR4, Brychyury (Bry), gooscecoid (GSC), HNF-3 beta, GATA4, hTERT and Oct4. AFP and SOX-7 are regarded as visceral endoderm markers while GATA4, HNF-3beta and SOX-17 represent definite endoderm markers and GSC, Bry, and CXCR4 represent markers of primitive streak. hTERT and Oct-4 are markers for self renewal and pluripotency respectively.
# H1P55 ES cells = assay: Definitive endoderm on […]: role of Wnt1 (real-time PCR); type: cell-based, human; details: 20 ng/ml Wnt1 in the presence of 100 ng/ml AA
# Procedure: The following combinations of WNT1+AA were tested:
# a) 20 ng/ml of WNT1+100 ng/ml AA in 0.5% FBS+DM-F12 for days 1-2 followed by 2% FBS+DM-F12+100 ng/ml AA for day three, b) 20 ng/ml of WNT1+100 ng/ml AA in 0.5% FBS+DM-F12 for days 1-2 followed by 2% FBS+DM-F12+100 ng/ml AA for days 3-5, c) 10 ng/ml of WNT1+100 ng/ml AA in 0.5% FBS+DM-F12 for days 1-2 followed by 2% FBS+DMF12+100 ng/ml AA for day three, d) 10 ng/ml of WNT1+100 ng/ml AA in 0.5% FBS+DM-F12 for days 1-2 followed by 2% FBS+DM-F12+100 ng/ml AA for days 3-5, e) 20 ng/ml of WNT1+100 ng/ml AA in 0.5% FBS+DM-F12 for days 1-2 followed by 2% FBS+DM-F12+100 ng/ml AA+20 ng/ml of WNT1 for day three, f) 20 ng/ml of WNT1+100 ng/ml AA in 0.5% FBS+DM-F12 for days 1-2 followed by 2% FBS+DM-F12+100 ng/ml AA+20 ng/ml of WNT1 for days 3-5.
molecule,measurement,setting,value
fibronectin,formation of definitive endoderm (real-time PCR),H9P55 cells,equivalent
B1,mesoderm marker BRY,[1],induce formation of mesoderm marker BRY
B2,"expression level of differentiation markers (CXCR4, GATA4, HNF-3beta, SOX17, goosecoid)",H9 cells,dramatically decrease to levels similar to that of untreated cells
B3,"definitive endoderm markers (Bry, CXCR4, GSC, SOX17, HNF-3B, and GATA-4)",H1P55 ES cells,significant up regulation

# Source: patent US9096832B2, “Differentiation of human embryonic stem cells” (LifeScan, Inc., priority 2007, dated 2015)
